Data taken from article PMC12041577 (Nature Communications, 2025).
Residue numbers refer to the chain shown, from its start. In names and notes the source's numbering stands.

B1: ad2-100K truncation mutant Δ680–805 with a C terminal 2 × Strep tag (domain or fragment, human adenovirus type 2 (ad2), UniProt P24932 1-679, looked up)
chain: MESVEKEDSLTAPFEFATTASTDAANAPTTFPVEAPPLEEEEVIIEQDPGFVSEDDEDRSVPTEDKKQDQDDAEANEEQVGRGDQRHGDYLDVGDDVLLKHLQRQCAIICDALQERSDVPLAIADVSLAYERHLFSPRVPPKRQENGTCEPNPRLNFYPVFAVPEVLATYHIFFQNCKIPLSCRANRSRADKQLALRQGAVIPDIASLDEVPKIFEGLGRDEKRAANALQQENSENESHCGVLVELEGDNARLAVLKRSIEVTHFAYPALNLPPKVMSTVMSELIVRRARPLERDANLQEQTEEGLPAVGDEQLARWLETREPADLEERRKLMMAAVLVTVELECMQRFFADPEMQRKLEETLHYTFRQGYVRQACKISNVELCNLVSYLGILHENRLGQNVLHSTLKGEARRDYVRDCVYLFLCYTWQTAMGVWQQCLEERNLKELQKLLKQNLKDLWTAFNERSVAAHLADIIFPERLLKTLQQGLPDFTSQSMLQNFRNFILERSGILPATCCALPSDFVPIKYRECPPPLWGHCYLLQLANYLAYHSDIMEDVSGDGLLECHCRCNLCTPHRSLVCNSQLLSESQIIGTFELQGPSPDEKSAAPGLKLTPGLWTSAYLRKFVPEDYHAHEIRFYEDQSRPPNAELTACVITQGHILGQLQAINKARQEFLLRKGR
B2: ad2-100K fused with a C terminal 2 × Strep tag (natural protein, human adenovirus type 2 (ad2), UniProt P24932 1-805, looked up)
chain: MESVEKEDSLTAPFEFATTASTDAANAPTTFPVEAPPLEEEEVIIEQDPGFVSEDDEDRSVPTEDKKQDQDDAEANEEQVGRGDQRHGDYLDVGDDVLLKHLQRQCAIICDALQERSDVPLAIADVSLAYERHLFSPRVPPKRQENGTCEPNPRLNFYPVFAVPEVLATYHIFFQNCKIPLSCRANRSRADKQLALRQGAVIPDIASLDEVPKIFEGLGRDEKRAANALQQENSENESHCGVLVELEGDNARLAVLKRSIEVTHFAYPALNLPPKVMSTVMSELIVRRARPLERDANLQEQTEEGLPAVGDEQLARWLETREPADLEERRKLMMAAVLVTVELECMQRFFADPEMQRKLEETLHYTFRQGYVRQACKISNVELCNLVSYLGILHENRLGQNVLHSTLKGEARRDYVRDCVYLFLCYTWQTAMGVWQQCLEERNLKELQKLLKQNLKDLWTAFNERSVAAHLADIIFPERLLKTLQQGLPDFTSQSMLQNFRNFILERSGILPATCCALPSDFVPIKYRECPPPLWGHCYLLQLANYLAYHSDIMEDVSGDGLLECHCRCNLCTPHRSLVCNSQLLSESQIIGTFELQGPSPDEKSAAPGLKLTPGLWTSAYLRKFVPEDYHAHEIRFYEDQSRPPNAELTACVITQGHILGQLQAINKARQEFLLRKGRGVYLDPQSGEELNPIPPPPQPYQQPRALASQDGTQKEAAAAAAATHGRGGILGQSGRGGFGRGGGDDGRLGQPRRSFRGRRGVRRNTVTLGRIPLAGAPEIGNRSQHRYNLRSSGAAGTACSPTQP
modifications: intermolecular disulfide bonds C515-C516' and C516-C515' between the two protomers
B3: ad2-100K mutant C515S-C516S-strepII (natural protein, human adenovirus type 2 (ad2), UniProt P24932 1-805, looked up)
chain: B2 chain with C515S, C516S
B4: ad2-100K truncation mutant Δ693–805 with a C terminal 2 × Strep tag (domain or fragment, human adenovirus type 2 (ad2), UniProt P24932 1-692, looked up)
chain: MESVEKEDSLTAPFEFATTASTDAANAPTTFPVEAPPLEEEEVIIEQDPGFVSEDDEDRSVPTEDKKQDQDDAEANEEQVGRGDQRHGDYLDVGDDVLLKHLQRQCAIICDALQERSDVPLAIADVSLAYERHLFSPRVPPKRQENGTCEPNPRLNFYPVFAVPEVLATYHIFFQNCKIPLSCRANRSRADKQLALRQGAVIPDIASLDEVPKIFEGLGRDEKRAANALQQENSENESHCGVLVELEGDNARLAVLKRSIEVTHFAYPALNLPPKVMSTVMSELIVRRARPLERDANLQEQTEEGLPAVGDEQLARWLETREPADLEERRKLMMAAVLVTVELECMQRFFADPEMQRKLEETLHYTFRQGYVRQACKISNVELCNLVSYLGILHENRLGQNVLHSTLKGEARRDYVRDCVYLFLCYTWQTAMGVWQQCLEERNLKELQKLLKQNLKDLWTAFNERSVAAHLADIIFPERLLKTLQQGLPDFTSQSMLQNFRNFILERSGILPATCCALPSDFVPIKYRECPPPLWGHCYLLQLANYLAYHSDIMEDVSGDGLLECHCRCNLCTPHRSLVCNSQLLSESQIIGTFELQGPSPDEKSAAPGLKLTPGLWTSAYLRKFVPEDYHAHEIRFYEDQSRPPNAELTACVITQGHILGQLQAINKARQEFLLRKGRGVYLDPQSGEELN

Molecular target: the molecule itself
Assay: GraFix

Protein	binding result	stoichiometry N
B1	binds	–
B2	–	2
B3	binds	–
B4	binds	–
